The supplement of paper PMC10567573

B1: PKD2L1 (parent)
chain: SGPEAARAGGWVSGEEFYMLTRRV
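Further: lentivirally expressed fusions sorted by FACS into six bins by GFP to DsRed ratio, PSI derived from sequencing read proportions per bin multiplied by bin number.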

Variants of: B1
Experiment: protein stability index of a GFP-peptide fusion (GPS, HEK-293T) (PSI 1-6); higher = more stable
Conditions: c terminus: a fixed tail appended
Variant SGPEAARADGWVSGEEFYMLTRRV has a protein stability index of 2.5. SGPEAARARGWVSGEEFYMLTRRV gave a protein stability index of 1.95. Work on SGPEAARALGWVSGEEFYMLTRRV yielded a protein stability index of 2.95. With SGPEAARAVGWVSGEEFYMLTRRV the protein stability index was 1.85. With SGPEAARAMGWVSGEEFYMLTRRV the protein stability index was 1.97. SGPEAARACGWVSGEEFYMLTRRV showed a protein stability index of 1.59. Work on SGPEAARAPGWVSGEEFYMLTRRV yielded a protein stability index of 2.39. SGPEAARAYGWVSGEEFYMLTRRV showed a protein stability index of 2.21. Variant SGPEAARAFGWVSGEEFYMLTRRV has a protein stability index of 2.06. Work on SGPEAARAIGWVSGEEFYMLTRRV yielded a protein stability index of 2.25. For SGPEAARASGWVSGEEFYMLTRRV, the protein stability index was 2.42. For SGPEAARAEGWVSGEEFYMLTRRV, the protein stability index was 2.5. SGPEAARATGWVSGEEFYMLTRRV gave a protein stability index of 1.92. SGPEAARAQGWVSGEEFYMLTRRV gave a protein stability index of 2.51. SGPEAARAAGWVSGEEFYMLTRRV showed a protein stability index of 1.92. Variant SGPEAARAHGWVSGEEFYMLTRRV has a protein stability index of 2.03. Variant SGPEAARAKGWVSGEEFYMLTRRV has a protein stability index of 1.97. SGPEAARANGWVSGEEFYMLTRRV gave a protein stability index of 2.13. With SGPQAARAGGWVSGEEFYMLTRRV the protein stability index was 1.57. SGPLAARAGGWVSGEEFYMLTRRV showed a protein stability index of 1.6. SGPKAARAGGWVSGEEFYMLTRRV gave a protein stability index of 1.94. Variant SGPVAARAGGWVSGEEFYMLTRRV has a protein stability index of 1.56. SGPWAARAGGWVSGEEFYMLTRRV gave a protein stability index of 1.3. Work on SGPGAARAGGWVSGEEFYMLTRRV yielded a protein stability index of 2.42. SGPNAARAGGWVSGEEFYMLTRRV gave a protein stability index of 2.64. With SGPCAARAGGWVSGEEFYMLTRRV the protein stability index was 1.81. In the case of SGPPAARAGGWVSGEEFYMLTRRV, the protein stability index is reported as 2.08. In the case of SGPMAARAGGWVSGEEFYMLTRRV, the protein stability index is reported as 2.35. Work on SGPYAARAGGWVSGEEFYMLTRRV yielded a protein stability index of 1.92. Variant SGPFAARAGGWVSGEEFYMLTRRV has a protein stability index of 1.71. Work on SGPRAARAGGWVSGEEFYMLTRRV yielded a protein stability index of 2.44. In the case of SGPDAARAGGWVSGEEFYMLTRRV, the protein stability index is reported as 2.59. Work on SGPSAARAGGWVSGEEFYMLTRRV yielded a protein stability index of 3.46. Work on SGPHAARAGGWVSGEEFYMLTRRV yielded a protein stability index of 2.28. With SGPTAARAGGWVSGEEFYMLTRRV the protein stability index was 1.78. In the case of SGPIAARAGGWVSGEEFYMLTRRV, the protein stability index is reported as 2.02. With SGPEGARAGGWVSGEEFYMLTRRV the protein stability index was 3.07. Variant SGPEVARAGGWVSGEEFYMLTRRV has a protein stability index of 3.28. SGPEEARAGGWVSGEEFYMLTRRV gave a protein stability index of 2.32. For SGPECARAGGWVSGEEFYMLTRRV, the protein stability index was 1.98. Variant SGPESARAGGWVSGEEFYMLTRRV has a protein stability index of 1.96. In the case of SGPEFARAGGWVSGEEFYMLTRRV, the protein stability index is reported as 2.24. With SGPEYARAGGWVSGEEFYMLTRRV the protein stability index was 2.18. For SGPETARAGGWVSGEEFYMLTRRV, the protein stability index was 1.82. Variant SGPEKARAGGWVSGEEFYMLTRRV has a protein stability index of 1.96. For SGPEHARAGGWVSGEEFYMLTRRV, the protein stability index was 2.03. In the case of SGPEMARAGGWVSGEEFYMLTRRV, the protein stability index is reported as 2.58. SGPEQARAGGWVSGEEFYMLTRRV showed a protein stability index of 2.45. With SGPENARAGGWVSGEEFYMLTRRV the protein stability index was 2.18. In the case of SGPEDARAGGWVSGEEFYMLTRRV, the protein stability index is reported as 2.71. SGPERARAGGWVSGEEFYMLTRRV showed a protein stability index of 2.4. Work on SGPEPARAGGWVSGEEFYMLTRRV yielded a protein stability index of 2.2. SGPELARAGGWVSGEEFYMLTRRV gave a protein stability index of 2.19. For SGPEIARAGGWVSGEEFYMLTRRV, the protein stability index was 2.33. Work on SGPEWARAGGWVSGEEFYMLTRRV yielded a protein stability index of 2.06. With DGPEAARAGGWVSGEEFYMLTRRV the protein stability index was 2.35. In the case of YGPEAARAGGWVSGEEFYMLTRRV, the protein stability index is reported as 1.46. With TGPEAARAGGWVSGEEFYMLTRRV the protein stability index was 2.68. VGPEAARAGGWVSGEEFYMLTRRV showed a protein stability index of 2.67. Work on WGPEAARAGGWVSGEEFYMLTRRV yielded a protein stability index of 2.85. With HGPEAARAGGWVSGEEFYMLTRRV the protein stability index was 2.53. AGPEAARAGGWVSGEEFYMLTRRV gave a protein stability index of 2.81. KGPEAARAGGWVSGEEFYMLTRRV gave a protein stability index of 2.75. In the case of PGPEAARAGGWVSGEEFYMLTRRV, the protein stability index is reported as 2.35. In the case of FGPEAARAGGWVSGEEFYMLTRRV, the protein stability index is reported as 1.12. With NGPEAARAGGWVSGEEFYMLTRRV the protein stability index was 2.65. QGPEAARAGGWVSGEEFYMLTRRV gave a protein stability index of 3.02. MGPEAARAGGWVSGEEFYMLTRRV gave a protein stability index of 2.04. In the case of LGPEAARAGGWVSGEEFYMLTRRV, the protein stability index is reported as 1.5. In the case of EGPEAARAGGWVSGEEFYMLTRRV, the protein stability index is reported as 2.68. Variant IGPEAARAGGWVSGEEFYMLTRRV has a protein stability index of 2.64. With SGSEAARAGGWVSGEEFYMLTRRV the protein stability index was 2.02. With SGGEAARAGGWVSGEEFYMLTRRV the protein stability index was 2.63. Variant SGQEAARAGGWVSGEEFYMLTRRV has a protein stability index of 2.44. In the case of SGWEAARAGGWVSGEEFYMLTRRV, the protein stability index is reported as 1.74. In the case of SGAEAARAGGWVSGEEFYMLTRRV, the protein stability index is reported as 2.38. For SGLEAARAGGWVSGEEFYMLTRRV, the protein stability index was 1.91. Work on SGDEAARAGGWVSGEEFYMLTRRV yielded a protein stability index of 2.04. In the case of SGNEAARAGGWVSGEEFYMLTRRV, the protein stability index is reported as 2.59. For SGKEAARAGGWVSGEEFYMLTRRV, the protein stability index was 2.37. SGVEAARAGGWVSGEEFYMLTRRV showed a protein stability index of 2.14. SGHEAARAGGWVSGEEFYMLTRRV showed a protein stability index of 2.32. In the case of SGREAARAGGWVSGEEFYMLTRRV, the protein stability index is reported as 1.78. In the case of SGYEAARAGGWVSGEEFYMLTRRV, the protein stability index is reported as 1.49. Work on SGFEAARAGGWVSGEEFYMLTRRV yielded a protein stability index of 1.83. SGTEAARAGGWVSGEEFYMLTRRV gave a protein stability index of 2.4. With SGIEAARAGGWVSGEEFYMLTRRV the protein stability index was 2.16. For SGEEAARAGGWVSGEEFYMLTRRV, the protein stability index was 2.43. Work on SGCEAARAGGWVSGEEFYMLTRRV yielded a protein stability index of 2.11. Variant SGMEAARAGGWVSGEEFYMLTRRV has a protein stability index of 2.2. With SGPEAARAGMWVSGEEFYMLTRRV the protein stability index was 2.31. With SGPEAARAGDWVSGEEFYMLTRRV the protein stability index was 3.01. SGPEAARAGLWVSGEEFYMLTRRV showed a protein stability index of 2.17. In the case of SGPEAARAGPWVSGEEFYMLTRRV, the protein stability index is reported as 2.37.
